Laboratory results: patent US20220251206A1 (Bristol-Myers Squibb, published 2022)

T1: CTLA4 (UniProt P16410 36-223, limits assumed)
T1 sequence (looked up): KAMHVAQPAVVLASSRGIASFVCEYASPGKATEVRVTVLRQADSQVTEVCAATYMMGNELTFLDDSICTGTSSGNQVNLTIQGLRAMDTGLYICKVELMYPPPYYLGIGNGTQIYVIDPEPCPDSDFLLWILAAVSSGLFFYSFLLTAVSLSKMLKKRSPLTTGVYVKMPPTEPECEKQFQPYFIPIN


target: T1, CTLA4; experiment: cell-based or functional assay

IL-2 secretion by SEB-stimulated PBMC (HTRF)	Binder
~3 fold	de-prodrugged Antibody A1 (antibody, human IgG1, kappa, V domains shown, succinimide residue (or its ring-opened derivative) left on the substituted-in Cys of VH CDR2 after cleavage of the linker) VH: QVQLVESGGGVVQPGRSLRLSCAASGFTFSSYTMHWVRQAPGKGLEWVTFISYDGNCKYYADSVKGRFTISRDNSKNTLYLQMNSLRAEDTAIYYCARTGWLGPFDYWGQGTLVTVSS VL: not shown
~3 fold	de-prodrugged Antibody C1 (antibody, human IgG1, kappa, V domains shown, succinimide residue (or its ring-opened derivative) left on Cys 31 of SEQ ID NO:10 after cleavage of the linker) VH: QVQLVESGGGVVQPGRSLRLSCAASGFTFSSYTMHWVRQAPGKGLEWVTFISYDGNNKYYADSVKGRFTISRDNSKNTLYLQMNSLRAEDTAIYYCARTGWLGPFDYWGQGTLVTVSS VL: not shown
~3 fold	de-prodrugged Antibody B1 (antibody, human IgG1, kappa, V domains shown, succinimide residue (or its ring-opened derivative) left on Cys 28 of SEQ ID NO:10 after cleavage of the linker) VH: QVQLVESGGGVVQPGRSLRLSCAASGFTFSSYTMHWVRQAPGKGLEWVTFISYDGNNKYYADSVKGRFTISRDNSKNTLYLQMNSLRAEDTAIYYCARTGWLGPFDYWGQGTLVTVSS VL: not shown
~3 fold	de-prodrugged Antibody D1 (antibody, human IgG1, kappa, V domains shown, succinimide residue (or its ring-opened derivative) left on Cys 53 of SEQ ID NO:10 after cleavage of the linker) VH: QVQLVESGGGVVQPGRSLRLSCAASGFTFSSYTMHWVRQAPGKGLEWVTFISYDGNNKYYADSVKGRFTISRDNSKNTLYLQMNSLRAEDTAIYYCARTGWLGPFDYWGQGTLVTVSS VL: not shown
~3 fold	de-prodrugged Antibody E1 (antibody, human IgG1, kappa, V domains shown, succinimide residue (or its ring-opened derivative) left on Cys 57 of SEQ ID NO:10 after cleavage of the linker) VH: QVQLVESGGGVVQPGRSLRLSCAASGFTFSSYTMHWVRQAPGKGLEWVTFISYDGNNKYYADSVKGRFTISRDNSKNTLYLQMNSLRAEDTAIYYCARTGWLGPFDYWGQGTLVTVSS VL: not shown
